Each block holds one molecule with its values, some of them ahead of it.
How the values were obtained:
[1] = target: major royal jelly protein 3 (MRJP-3) (Apis mellifera) (UniProt Q17060); experiment: MST; increasing unlabelled MRJP-3 added to fluorescently labelled MRJP-3 monomer; Monolith NT.115, 25 °C, RJ buffer with 0.01% Tween 20; apparent Kd of self-association; signal stable from approximately 40 uM added MRJP-3
[2] = target: major royal jelly protein 3 (MRJP-3) (Apis mellifera) (UniProt Q17060); experiment: SEC; MRJP-3 concentrated to 100 uM, 16/100 Superdex 200, eluted at 0.5 ml/min in RJ buffer (pH 4.0), no RNA; column calibrated with mass standards; monomer to higher-order oligomer
MRJP-3 (jelly-purified) [3] = target: T1, MRJP-3 (jelly-purified) (Apis mellifera, UniProt Q17060 21-544); experiment: EMSA; 42.8 uM protein; MST: RJ buffer (composition not in material) + 0.01% Tween 20, 25 C; EMSA: room temperature 0.5-3 h, 0.8% agarose, 1xTAE; settings: protein: native
T1 sequence: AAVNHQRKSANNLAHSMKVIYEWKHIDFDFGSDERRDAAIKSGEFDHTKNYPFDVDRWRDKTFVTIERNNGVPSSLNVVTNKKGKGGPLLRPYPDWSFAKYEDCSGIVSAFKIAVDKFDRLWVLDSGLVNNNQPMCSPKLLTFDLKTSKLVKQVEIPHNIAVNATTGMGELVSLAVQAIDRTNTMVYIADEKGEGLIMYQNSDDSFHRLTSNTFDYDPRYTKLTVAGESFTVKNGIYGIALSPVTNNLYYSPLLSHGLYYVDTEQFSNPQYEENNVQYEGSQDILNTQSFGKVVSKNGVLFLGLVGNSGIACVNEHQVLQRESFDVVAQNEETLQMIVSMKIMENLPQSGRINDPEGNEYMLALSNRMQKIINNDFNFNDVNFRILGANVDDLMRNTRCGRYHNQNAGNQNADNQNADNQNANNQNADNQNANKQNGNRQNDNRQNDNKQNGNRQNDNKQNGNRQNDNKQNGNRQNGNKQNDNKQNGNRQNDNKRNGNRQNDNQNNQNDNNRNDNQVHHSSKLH

MRJP-3 (jelly-purified) [4] = target: T1, MRJP-3 (jelly-purified); experiment: EMSA; 42.8 uM protein, 0.27 uM RNA; MST: RJ buffer (composition not in material) + 0.01% Tween 20, 25 C; EMSA: room temperature 0.5-3 h, 0.8% agarose, 1xTAE; settings: protein: native
MRJP-3 (jelly-purified) [5] = target: T1, MRJP-3 (jelly-purified); experiment: MST; first of three binding phases; MST: RJ buffer (composition not in material) + 0.01% Tween 20, 25 C; EMSA: room temperature 0.5-3 h, 0.8% agarose, 1xTAE; settings: protein: native; label: Alexa Fluor 488 (Ulysis) for MST
MRJP-3 (jelly-purified) [6] = target: T1, MRJP-3 (jelly-purified); experiment: MST; third of three binding phases; MST: RJ buffer (composition not in material) + 0.01% Tween 20, 25 C; EMSA: room temperature 0.5-3 h, 0.8% agarose, 1xTAE; settings: protein: native; label: Alexa Fluor 488 (Ulysis) for MST
MRJP-3 (jelly-purified) [7] = target: T1, MRJP-3 (jelly-purified); experiment: MST; second of three binding phases; MST: RJ buffer (composition not in material) + 0.01% Tween 20, 25 C; EMSA: room temperature 0.5-3 h, 0.8% agarose, 1xTAE; settings: protein: native; label: Alexa Fluor 488 (Ulysis) for MST

Kd [1]: 3.5 µM
stoichiometry N (monomer units) [2]: 20
Molecule: major royal jelly protein 3 (MRJP-3) (from UniProt Q17060 21-544) (natural protein)

B1: 18 nt ssRNA (ssRNA)
RNA: UGUGUUUAUAGCGGAUUU
binding result (MRJP-3 (jelly-purified) [3]): binds

B2: 50 nt ssRNA (ssRNA)
RNA: ACGCUUCUAACUUCAAGAUUUUACACAAUCAUAUGGGCUCACUGUUACUA
binding result (MRJP-3 (jelly-purified) [4]): binds

B3: 22 nt ssRNA (ssRNA)
RNA: UCAUAUGGGCUCACUGUUACUA
Kd (MRJP-3 (jelly-purified) [5]): 4 nM
Kd (MRJP-3 (jelly-purified) [6]): 25 µM
Kd (MRJP-3 (jelly-purified) [7]): 300 nM
